Biological target: T1, Tb927.11.16120-His (r16120) (Trypanosoma brucei, UniProt Q381H4 1-610)
T1 sequence: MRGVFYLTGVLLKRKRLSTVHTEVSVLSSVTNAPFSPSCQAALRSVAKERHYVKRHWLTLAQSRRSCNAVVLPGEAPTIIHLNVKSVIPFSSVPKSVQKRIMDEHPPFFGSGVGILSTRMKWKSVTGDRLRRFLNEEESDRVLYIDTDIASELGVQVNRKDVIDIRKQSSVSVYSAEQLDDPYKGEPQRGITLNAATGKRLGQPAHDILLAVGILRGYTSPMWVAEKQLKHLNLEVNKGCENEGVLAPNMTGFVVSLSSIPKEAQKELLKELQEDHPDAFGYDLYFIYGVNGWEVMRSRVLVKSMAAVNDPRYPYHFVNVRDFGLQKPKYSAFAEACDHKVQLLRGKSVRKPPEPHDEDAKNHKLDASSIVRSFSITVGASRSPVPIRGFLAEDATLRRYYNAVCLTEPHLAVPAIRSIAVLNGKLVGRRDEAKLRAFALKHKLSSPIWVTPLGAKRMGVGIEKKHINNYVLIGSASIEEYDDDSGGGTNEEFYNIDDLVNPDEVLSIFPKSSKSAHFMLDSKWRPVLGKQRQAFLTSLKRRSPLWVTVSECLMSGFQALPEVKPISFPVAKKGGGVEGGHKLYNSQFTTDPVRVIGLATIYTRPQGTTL
Experiment: EMSA

B1: 73 bp conserved minicircle sequence (dsDNA)
DNA 1: GAAAAAACGGAAAATCTTATGGGCGTGCAAAAATACACATACACAAATCCCGTGCTTATTTTAGGCCATTTTT
DNA 2: AAAAATGGCCTAAAATAAGCACGGGATTTGTGTATGTGTATTTTTGCACGCCCATAAGATTTTCCGTTTTTTC
- binding result: binds
